The target in assay [1] is T1, human CLDN6, endogenously expressed on cancer cell lines (human, UniProt P56747 1-220).
T1 construct: also called Endogenous CLDN6+; CLDN6 on ARK2, OVCA429, UMUC4 cells
T1 sequence: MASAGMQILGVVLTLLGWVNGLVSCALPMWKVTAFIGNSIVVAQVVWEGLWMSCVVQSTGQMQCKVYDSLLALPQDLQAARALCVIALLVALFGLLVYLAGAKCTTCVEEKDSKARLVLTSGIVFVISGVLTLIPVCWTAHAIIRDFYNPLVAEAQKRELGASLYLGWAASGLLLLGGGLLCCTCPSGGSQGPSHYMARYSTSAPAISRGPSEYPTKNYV
The assay is described as follows: FACS dose curve, labelled mAb, ARK2 cells.

The target of assay [2] is T1, human CLDN6, endogenously expressed on …. The assay is described as follows: FACS dose curve, labelled mAb, OVCA429 cells.
The target in assay [3] is T2, CLDN4-GFP expressed on engineered HEK293T cells (human, UniProt O14493 1-209).
T2 construct: whole, on cells; also called HEK293T CLDN4-mGFP; Artificial CLDN4+; not shown: GFP tag
T2 sequence (looked up): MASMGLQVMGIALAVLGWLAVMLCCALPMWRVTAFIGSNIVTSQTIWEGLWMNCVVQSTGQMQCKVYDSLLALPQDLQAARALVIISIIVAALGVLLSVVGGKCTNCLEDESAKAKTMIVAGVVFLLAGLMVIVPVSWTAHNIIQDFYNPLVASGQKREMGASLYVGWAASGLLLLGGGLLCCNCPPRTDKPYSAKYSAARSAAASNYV
The assay is described as follows: FACS dose curve, labelled mAb, HEK293T CLDN4-mGFP cells.

The target of assay [4] is T3, CLDN9-GFP expressed on engineered HEK293T cells (human, UniProt O95484 1-217).
T3 construct: whole, on cells; also called HEK293T CLDN9-mGFP; Artificial CLDN9+; not shown: GFP tag
T3 sequence (looked up): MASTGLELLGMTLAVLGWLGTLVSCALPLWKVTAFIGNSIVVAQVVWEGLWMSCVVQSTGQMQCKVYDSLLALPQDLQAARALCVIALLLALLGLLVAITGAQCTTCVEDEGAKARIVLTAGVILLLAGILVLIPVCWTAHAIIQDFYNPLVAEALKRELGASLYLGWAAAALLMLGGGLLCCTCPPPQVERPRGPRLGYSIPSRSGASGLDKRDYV
In words: FACS dose curve, labelled mAb, HEK293T CLDN9-mGFP cells.

Assay [5] concerns the target T4, mouse CLDN6 fused to GFP, expressed on engineered HEK293T cells (mouse, UniProt Q9Z262 1-219).
T4 construct: whole, on cells; also called HEK293T-CLDN6-mGFP Artificial CLDN6+ (mouse); murine CLDN6; not shown: GFP tag
T4 sequence (looked up): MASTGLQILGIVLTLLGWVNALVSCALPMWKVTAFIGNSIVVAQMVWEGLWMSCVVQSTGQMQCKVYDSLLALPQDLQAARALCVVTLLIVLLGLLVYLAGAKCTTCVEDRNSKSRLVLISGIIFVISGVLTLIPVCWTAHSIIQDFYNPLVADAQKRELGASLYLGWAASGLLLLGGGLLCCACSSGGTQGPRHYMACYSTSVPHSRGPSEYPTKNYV
In words: FACS dose curve, labelled mAb, HEK293T-CLDN6-mGFP (mouse) cells.

B1: AB12 (antibody, V domains shown)
VH: EVKLMESGGDLVKPGGSLKLSCAASGFTFSSYAMSWVRQTPEKRLEWVASIRSGGTTYYPDSVKGRFTISRDNARNILYLRMSSLRSEDTAIYYCAKVGGNPYPMDYWGQGTSVTVSS
VL: DIQMIQSPSSMFASLGDRVSLSCRASQDIGGNLDWYQQKPGGTIKLLIYSTSNLNSGVPSRFSGSGSGSDYSLTITSLESEDFADYYCLQRNAYPLTFGAGTKLELK
notes: Full-length IgG (ExpiCHO)
Consider B1, for which the half-maximal effective concentration (EC50) in assay [1] turned out to be 1300 nM; in assay [2] it was 2290 nM; in assay [3] it was 2090 nM; in assay [4], 2470 nM.

B2: AB11 (antibody, V domains shown)
VH: DVQLVESGGGLVQPRGSRKLSCAASGFTFSSFGMHWVRQAPEKGLEWVAYISSDSRTIYYADTVKGRFTISRDNPTNTLFLQMTSLRSEDTAMYYCARDYGRTYEAYWGQGTLVTVSA
VL: DIVLTQSPASLAVSLGQRATISCRASKSVSTSGYSYIHWYQQKPGQPPKLLIYLASNLESGVPARFSGSGSGTDFTLNIHPVEEEDAATYYCQHSRELPLTFGAGTKLELK
notes: Full-length IgG (ExpiCHO)
Turning to B2, the EC50 in assay [1] was determined as 363 nM; in assay [2] it was 835 nM; in assay [3], 2240 nM; in assay [5], 2380 nM.

B3: AB15 (antibody, V domains shown)
VH: B2 VH
VL: NIMMTQSPSSLAVSAGEKVTMSCKSSQSVLFSSNQKNYLAWYQQKPGQSPRLLIYWASTRESGVPDRFTGSGSGTDFTLTISNVQAEDLAVYYCHQYLSSRTFGAGTKLELK
notes: Full-length IgG (ExpiCHO)
On to B3, for which the half-maximal effective concentration (EC50) in assay [3] and in assay [5] was not below 5000 nM each time.

B4: AB6 (antibody, V domains shown)
VH: DVQLQESGPGLVKSSQSLSLTCSVTGYSITSGYYWKWIRQFPGNKLEWMGYISYDGGINYNPSLKNRISITRDTSKNQFFLKLNSVTTEDTAKYYCARFGKGAMDYWGQGTSVTVSS
VL: AIVMFQSPSSLVVSAGEKVTMSCKSSQSLLNSRTRKNYLAWYQQKPGQSPKLLIYWASTRESGVPDRFTGSGSGTDFTLTISSVQAEDLAVYYCKQSYYLYTFGGGTKLEIK
notes: Full-length IgG (ExpiCHO)
As for B4, the concentration giving a half-maximal response (EC50) turned out to be 765 nM in assay [1]; 394 nM in assay [2]; 26 nM in assay [3]; 2770 nM in assay [4]; 2220 nM in assay [5].

B5: AB8 (antibody, V domains shown)
VH: QVQLQQSGAELARPGASVKMSCKASGYTFTTYTMHWLKQRPGQGLEWIGYINPRSGYSNYNQKFKDKATLTADKSSNTAYMQLNTLTSEDSKVYYCSRGELGGFAYWGQGTLVTVSA
VL: DVVMTQTPLSLPVSLGDQASISCRSSQSLVHSDGNTYLYWYLQKPGQSPKLLIYKVSNRFSGVPDRFSGSGSGTDFTLKISRVEAEDLGVYFCSQSTHVPYTFGGGTKLEIK
notes: Full-length IgG (ExpiCHO)
On to B5, for which the EC50 in assay [1] is 1140 nM; in assay [2] it was 1090 nM; in assay [3], not below 5000 nM; in assay [4], 2770 nM; in assay [5], not below 5000 nM.

B6: AB7 (antibody, V domains shown)
VH: EVQLQQSGPELVKPGASMKISCKASGYSFTGYTMNWVKQSHGKNLEWIGLINPYNGGTNYNQKFKGKATLTVDKSSSTAYMELLSLTSEDSAVYYCARGVYDYDGFTYWGQGTLVTVSA
VL: QIVLTQSPAIMSASLGDRVTMTCTASSSVSSSYLHWYQQKPGSSPKLWIYSTSNLASGVPARFSGSGSGTSYSLTISSMEAEDAATYYCHQYHRSPPTFGSGTKLEIK
notes: Full-length IgG (ExpiCHO)
Consider B6, for which the concentration giving a half-maximal response (EC50) in assay [1] stood at 353 nM; in assay [2] it was 531 nM; in assay [3] it was 2090 nM; in assay [4], 1940 nM; in assay [5] it was 1550 nM.

One may read the EC50 as the concentration that produces a half-maximal response. A higher EC50 goes with a less potent agent.

(Values after patent publication US20220177583A1 (University of California, published 2022).)
